Test results reported in PMC12002104, “Identification and Protein Engineering of Galactosidases for the Conversion of Blood Type B to Blood Type O” (Chembiochem, 2025).

Tests used:
[1] = test system: T1, O=[N+]([O-])c1ccc(O[C@H]2O[C@H](CO)[C@H](O)[C@H](O)[C@H]2O)cc1; assay: purified protein; format: biochemical, Pedobacter panaciterrae
T1 construct: recombinant, E. coli BL21 Gold (DE3), pET28(a), N-terminal His-tag kept for kinetics (thrombin site); for crystals His-tag cut off at introduced TEV site

[2] = substrate: O=[N+]([O-])c1ccc(O[C@H]2O[C@H](CO)[C@H](O)[C@H](O)[C@H]2O)cc1; assay: purified protein; format: biochemical, Bacteroides fragilis; settings: 50 mM sodium phosphate pH 7.5
[3] = 50 mM sodium phosphate pH 7.5, 25.0 °C

Question: For PpaGal (Pedobacter panaciterrae), which Km ([1]; 50 mM sodium phosphate pH 7.5) is on record?
Answer: 3.512 ± 0.413 mM

Question: What does the source list for PpaGal (Pedobacter panaciterrae; W227Y)?
Answer: Km [1, 3]: 3.43 ± 0.34 mM; kcat [1, 3]: 0.25 ± 0.01 s⁻¹

B1: BfGalB (Bacteroides fragilis NCTC 9343) (protein)
chain: QERVYDISQFGLKANSKKNASPVVRKAIAKIKAECRDGEKVILRFPAGRYNFHEAGSTVREYYISNHDQDNPKKVGIALEDMKNLTIDGQGSEFVFYGRMIPVSLLRSENCVLKNFSIDFEQPHIAQVQVVENDPEKGITFEPAPWVDYRISKDSVFEGLGEGWVMRYSWGIAFDGKTKHVVYNTSDIGCPTKGAFEVAPRRICSPKWKDARLVPGTVVAMRGWGRPTPGIFMSHDVNTSLLDVKVHYAEGMGLLAQLCEDITLDGFGVCLKGDNDPRYFTTQADATHFSGCKGKIVSKNGLYEGMMDDAINVHGTYLKVIKRVDDHTLIGRYMHDQSWGFEWGRPGDDVQFVRSETMELIGKQNQITAIRPYDKGEIRGAREFSITFKEAIDPAINEKSGFGIENLTWTPEVLFAGNTIRNNRARGTLFSTPKKTVVEDNLFDHTSGTAILLCGDCNGWFETGACRDVTIRRNRFINALTNMFQFTNAVISIYPEIPNLKDQQKYFHGGKDGGIVIEDNEFDTFDAPILYAKSVDGLIFRNNVIKTNTEFKPFHWNKDRFLLERVTNVKISE
notes: recombinant, E. coli BL21 Gold (DE3), pET28(a), N-terminal His-tag, thrombin site
Question: With B1 as the molecule, how does the Km [2] read?
Answer: 6.950 ± 0.710 mM

Question: What about the kcat [2] of the same molecule?
Answer: 0.753 ± 0.082 s⁻¹
